Values quoted from earlier work, collected in article PMC6238587.

Molecular target: PDI (Homo sapiens) (UniProt P07237)
Experiment: surface plasmon resonance
Details: cited from earlier work

Chain of PDI (Homo sapiens) (P07237 18-508): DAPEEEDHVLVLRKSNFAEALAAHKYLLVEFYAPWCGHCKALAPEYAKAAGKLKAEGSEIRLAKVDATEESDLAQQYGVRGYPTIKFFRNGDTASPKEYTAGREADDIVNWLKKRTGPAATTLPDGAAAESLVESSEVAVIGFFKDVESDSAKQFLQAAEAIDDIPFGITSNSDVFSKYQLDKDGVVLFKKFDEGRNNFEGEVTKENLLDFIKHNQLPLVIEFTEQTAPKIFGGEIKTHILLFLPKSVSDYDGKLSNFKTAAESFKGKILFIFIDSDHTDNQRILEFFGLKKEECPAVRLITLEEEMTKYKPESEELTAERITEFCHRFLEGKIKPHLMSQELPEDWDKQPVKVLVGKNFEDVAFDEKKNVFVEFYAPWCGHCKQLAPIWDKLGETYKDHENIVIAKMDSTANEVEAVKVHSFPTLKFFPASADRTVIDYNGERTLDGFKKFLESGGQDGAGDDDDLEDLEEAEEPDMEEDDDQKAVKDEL

Substance: Ero1α (from UniProt Q96HE7)
- Kd: 2100 nM
